Consider 1 molecule from PMC8894450, “Structural basis of leukotriene B4 receptor 1 activation” (Nature Communications, 2022).

The target in the assay is T1, human dominant-negative Gαi1 (S47N, G203A, A326S and E245A) (human, UniProt P63096 1-354, S47N | G203A | A326S | E245A).
T1 construct: The alpha-helical domain had no clear density in the map; also called Gα subunit; Gαi subunit; source: Sf9 cells co-infected with baculoviruses encoding each component; co-purified with the BLT1/Gi complex
Briefly: cryo-EM structure; single-particle cryo-EM of the LTB4-bound BLT1/Gi complex (with scFv16, NanoBiT tether); components co-expressed in Sf9, complex purified on amylose, TEV cut, gel filtration in 25 mM Hepes pH 7.5, 150 mM NaCl, LMNG/GDN/CHS; LTB4 300 nM throughout. The following applies: both partners purified.

T1 sequence (P63096 whole entry S47N/G203A/E245A/A326S, the tested form may be a part): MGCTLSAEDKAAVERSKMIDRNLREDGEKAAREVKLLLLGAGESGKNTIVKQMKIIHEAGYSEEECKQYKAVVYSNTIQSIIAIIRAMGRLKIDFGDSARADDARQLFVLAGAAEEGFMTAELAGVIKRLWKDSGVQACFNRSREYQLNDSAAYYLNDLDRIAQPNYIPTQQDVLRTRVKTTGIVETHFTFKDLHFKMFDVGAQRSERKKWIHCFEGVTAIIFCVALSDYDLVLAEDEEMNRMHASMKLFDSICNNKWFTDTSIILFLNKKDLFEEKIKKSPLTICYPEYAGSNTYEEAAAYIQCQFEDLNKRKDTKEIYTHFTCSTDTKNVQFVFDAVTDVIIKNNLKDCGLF

B1: engineered human leukotriene B4 receptor 1 (BLT1) with 4 thermostabilizing mutations and a C-terminal LgBiT fusion (receptor)
chain: MNTTSSAAPPSLGVEFISLLAIILLSVALAVGLPGNSFVVWSILKRMQKRSVTALMVLNLALADLAVLLTAPFFLHFLAQGTWSFGLAGCRLCHYVCGVSMYASVWLITAMSLDRSLAVARPFVSQKLRTKAMARRVLAGIWVLSFLLATPVLAYRTVVPWKTNMSLCFPRYPSEGHRAFHLIFEAVTGFLLPFLIVVASYSDIGRRLQARRFRRSRRTGRLVVLIILTFAAFWLPYHVVNLAEAGRALAGQAAGLGLVGKRLSLARNVLIALAFLSSSVNPVLYAFAGGGLLRSAGVGFVAKLLEGTGAEASSTRRGGSLGQTARSGPAALEPGPSESLTASSPLKLNELN
notes: human leukotriene B4 receptor 1 (BLT1), codon-optimized gene; model lacks the first 14 residues and the C-tail after residue 301; A TEV site stands between LgBiT and 2x MBP; LgBiT on the receptor pairs with HiBiT on Gbeta1 (NanoBiT tethering strategy); also called BLT1R; the receptor; source: Sf9 cells co-infected with baculoviruses encoding each component; complex purified (amylose column, TEV …)
With B1, the binding result is “binds”.
